From publication PMC6175992, “Telomeric Repeat-Binding Factor Homologs in Entamoeba histolytica: New Clues for Telomeric Research”

T1: rEhTRF-like I (Entamoeba histolytica, UniProt C4M1I9 1-404)
T1 sequence: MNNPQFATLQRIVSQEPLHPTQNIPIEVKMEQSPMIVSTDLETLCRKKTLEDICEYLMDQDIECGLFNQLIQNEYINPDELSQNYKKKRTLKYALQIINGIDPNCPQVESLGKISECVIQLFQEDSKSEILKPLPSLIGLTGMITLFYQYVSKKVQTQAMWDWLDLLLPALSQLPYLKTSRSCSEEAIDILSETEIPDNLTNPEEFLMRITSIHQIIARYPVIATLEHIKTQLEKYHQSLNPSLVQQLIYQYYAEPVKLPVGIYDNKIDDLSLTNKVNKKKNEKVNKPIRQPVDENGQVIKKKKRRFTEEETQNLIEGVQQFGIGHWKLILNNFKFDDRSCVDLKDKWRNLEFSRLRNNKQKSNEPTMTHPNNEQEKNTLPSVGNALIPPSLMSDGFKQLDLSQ


Molecular target: T1, rEhTRF-like I
Assay: EMSA; competed by unlabeled HsTEL and EhTEL; 12 mM HEPES pH 7.9, 60 mM KCl, 5 mM MgCl2, 1 mM EDTA, 4 mM Tris-HCl, 5 mM DTT, 10% glycerol, 4 mM spermidine, 4 mM MgCl (so in the source), 50 ng poly dI-dC, protease inhibitors; 20 min at 4 C; 106.86 uM rEhTRF-like I or 10 ug nuclear extract, 1 ng probe
Details: protein: recombinant; tags: His tag (pCold I); label: 32P; 5' overhangs on both strands

Binder	binding result
HsTEL (dsDNA) DNA 1: GCTCTAGGGTTAGGGTTAGGGTTAGGGTTA DNA 2: CATCTACCCTAACCCTAACCCTAACCCTAA	binds
EhTEL (dsDNA) DNA 1: GCTCTATTAGTATTTTAGTATTTTAGTATTTTAGTATT DNA 2: CATCTAGAGCAATACTAAAATACTAAAATACTAAAATACTAA	binds
